Data from paper PMC3983370.

Molecular target: HCoV-OC43 nucleocapsid (N) protein WT (Human coronavirus OC43, UniProt P33469 1-448)
Assay: SPR

HCoV-OC43 nucleocapsid (N) protein WT, sequence (P33469 whole entry): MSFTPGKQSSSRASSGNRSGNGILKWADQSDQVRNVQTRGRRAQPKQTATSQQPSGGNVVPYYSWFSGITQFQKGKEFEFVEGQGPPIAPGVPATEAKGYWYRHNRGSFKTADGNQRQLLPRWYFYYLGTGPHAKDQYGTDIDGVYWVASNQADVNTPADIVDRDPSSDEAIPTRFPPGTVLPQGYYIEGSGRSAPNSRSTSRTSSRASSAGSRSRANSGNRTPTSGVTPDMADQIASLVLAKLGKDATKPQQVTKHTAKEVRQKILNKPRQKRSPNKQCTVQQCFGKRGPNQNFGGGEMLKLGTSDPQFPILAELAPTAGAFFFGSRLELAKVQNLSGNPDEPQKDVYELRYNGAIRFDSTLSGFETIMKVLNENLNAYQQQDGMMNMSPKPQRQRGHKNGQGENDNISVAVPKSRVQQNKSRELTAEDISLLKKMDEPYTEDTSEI

Q: Which Kd does the source give for UCUAAACUCUAAACUCUAAACUCUAAAC (ssRNA) [(UCUAAAC)4 repeated intergenic sequence] here?
A: 11.7 ± 0.8 nM
